Source: US20020177126A1 (published 2002)
Positions count from the first letter of the chain named. Where “and” joins values, the source holds several entries; their conditions need not be identical. Equal entries are not always repeated.

B1: SYNAGIS® (antibody, V domains shown)
VH: QVTLRESGPALVKPTQTLTLTCTFSGFSLSTSGMSVGWIRQPPGKALEWLADIWWDDKKDYNPSLKSRLTISKDTSKNQVVLKVTNMDPADTATYYCARSMITNWYFDVWGAGTTVTVSS
VL: DIQMTQSPSTLSASVGDRVTITCKCQLSVGYMHWYQQKPGKAPKLLIYDTSKLASGVPSRFSGSGSGTEFTLTISSLQPDDFATYYCFQGSGYPFTFGGGTKLEIK
notes: also called SYNAGIS ®/SYNAGIS ® (HC/LC)
B2: A4B4 (monoclonal antibody) (antibody, V domains shown)
VH: B1 VH with S32A, D60H, S67D, S100D, T103F, W105F, A112Q
VL: B1 VL with K24S, C25A, Q26S, L27S, S28R, S51F, K52F, A54D
notes: also called A4B4/A4B4 (HC/LC)

Assays:
[1] = biological target: T1, F protein of RSV A/Long MARM B13 (respiratory syncytial virus, strain …, UniProt P12568 26-574); experiment: IFA on MARM-infected HEp-2 cells
T1 construct: whole, on cells

[2] = biological target: T2, F protein of RSV A/Long MARM B1 (respiratory syncytial virus, strain …, UniProt P12568 26-574); experiment: IFA on MARM-infected HEp-2 cells
T2 construct: whole, on cells

[3] = biological target: T3, F protein of RSV A/Long MARM B10 (respiratory syncytial virus, strain …, UniProt P12568 26-574); experiment: IFA on MARM-infected HEp-2 cells
T3 construct: whole, on cells

[4] = biological target: T4, F protein of RSV A/Long MARM B15 (respiratory syncytial virus, strain …, UniProt P12568 26-574); experiment: IFA on MARM-infected HEp-2 cells
T4 construct: whole, on cells

[5] = biological target: T5, F protein of RSV A/Long MARM B7 (respiratory syncytial virus, strain …, UniProt P12568 26-574); experiment: IFA on MARM-infected HEp-2 cells
T5 construct: whole, on cells

[6] = biological target: T6, F protein of RSV A/Long MARM B4 (respiratory syncytial virus, strain …, UniProt P12568 26-574); experiment: IFA on MARM-infected HEp-2 cells
T6 construct: whole, on cells

[7] = biological target: T7, F protein of RSV A/Long MARM B3 (respiratory syncytial virus, strain …, UniProt P12568 26-574); experiment: IFA on MARM-infected HEp-2 cells
T7 construct: whole, on cells

[8] = biological target: T8, F protein of RSV A/Long MARM B8 (respiratory syncytial virus, strain …, UniProt P12568 26-574); experiment: IFA on MARM-infected HEp-2 cells
T8 construct: whole, on cells

[9] = biological target: T9, F protein of RSV A/Long MARM B2 (respiratory syncytial virus, strain …, UniProt P12568 26-574); experiment: IFA on MARM-infected HEp-2 cells
T9 construct: whole, on cells

[10] = biological target: T10, F protein of RSV A/Long MARM B14 (respiratory syncytial virus, strain …, UniProt P12568 26-574); experiment: IFA on MARM-infected HEp-2 cells
T10 construct: whole, on cells

[11] = biological target: T11, F protein of RSV A/Long MARM B6 (respiratory syncytial virus, strain …, UniProt P12568 26-574); experiment: IFA on MARM-infected HEp-2 cells
T11 construct: whole, on cells

[12] = biological target: T12, F protein of MARM #13 (selected with A4B4 from MARM B9) (respiratory syncytial virus, strain …, UniProt P12568 26-574); experiment: IFA on MARM-infected HEp-2 cells
T12 construct: whole, on cells

[13] = biological target: T13, F protein of RSV A/Long MARM B9 (respiratory syncytial virus, strain …, UniProt P12568 26-574); experiment: IFA on MARM-infected HEp-2 cells
T13 construct: whole, on cells

[14] = biological target: T14, F protein of wild type RSV A/Long (respiratory syncytial virus, strain …, UniProt P12568 26-574); experiment: cell-based or functional assay
[15] = biological target: T15, F protein of RSV A/Long MARM #10 (selected with A4B4) (respiratory syncytial virus, strain …, UniProt P12568 26-574); experiment: IFA on MARM-infected HEp-2 cells
T15 construct: whole, on cells

[16] = biological target: T16, F protein of RSV A/Long MARM #6 (selected with A4B4) (respiratory syncytial virus, strain …, UniProt P12568 26-574); experiment: IFA on MARM-infected HEp-2 cells
T16 construct: whole, on cells

[17] = biological target: T17, F protein of RSV A/Long MARM #11 (selected with A4B4) (respiratory syncytial virus, strain …, UniProt P12568 26-574); experiment: IFA on MARM-infected HEp-2 cells
T17 construct: whole, on cells

[18] = biological target: T18, F protein of RSV A/Long MARM #9 (selected with A4B4) (respiratory syncytial virus, strain …, UniProt P12568 26-574); experiment: IFA on MARM-infected HEp-2 cells
T18 construct: whole, on cells

[19] = biological target: F protein (RSV F glycoprotein immobilised on the BIAcore sensor chip) (respiratory syncytial virus (RSV), UniProt P03420 26-524); experiment: BIAcore, immobilised F protein
[20] = biological target: Bac-F (UniProt P03420 26-524); experiment: BIAcore, Mab vs Bac-F, 1:1
[21] = biological target: T14, F protein of wild type RSV A/Long; experiment: cell-based or functional assay; remark: listed apart in the source

Binder	binding result [12]	binding result [15]	binding result [16]	binding result [17]	binding result [18]	Kd [20] [nM]	koff [20] [s⁻¹]	kon [20] [M⁻¹ s⁻¹]	number in parentheses after KD (fold vs SYNAGIS) [20] [fold]	Mean IC50 (Control), RSV microneutralization [21] [µg/mL]	Mean IC50 (Curve), RSV microneutralization [21] [µg/mL]	also measured
B1	no binding (tested: 250 ng/ml)	no binding (tested: 250 ng/ml)	no binding (tested: 250 ng/ml)	no binding (tested: 250 ng/ml)	no binding (tested: 250 ng/ml)	3.9	0.000515	132000	1	0.535	0.453	binding result [1]: no binding (tested: 250 ng/ml); binding result [2]: no binding (tested: 250 ng/ml); binding result [3]: no binding (tested: 250 ng/ml); binding result [4]: no binding (tested: 250 ng/ml); binding result [5]: no binding (tested: 250 ng/ml); binding result [6]: no binding (tested: 250 ng/ml); binding result [7]: no binding (tested: 250 ng/ml); binding result [8]: no binding (tested: 250 ng/ml); binding result [9]: no binding (tested: 250 ng/ml); binding result [10]: no binding (tested: 250 ng/ml); binding result [11]: no binding (tested: 250 ng/ml); binding result [13]: no binding (tested: 250 ng/ml); EC50, RSV (Long) microneutralization [14]: 3.57 nM; koff [19]: 0.000764 s⁻¹ and 0.000738 s⁻¹ and 0.000702 s⁻¹; kon [19]: 204000 M⁻¹ s⁻¹ and 189000 M⁻¹ s⁻¹ and 218000 M⁻¹ s⁻¹
B2	no binding (tested: 250 ng/ml)	no binding (tested: 250 ng/ml)	no binding (tested: 250 ng/ml)	no binding (tested: 250 ng/ml)	no binding (tested: 250 ng/ml)	0.02	1.06e-05	434000	195	0.0154	0.0171	Fold Difference (Control IC50) [21]: 35 fold; Fold Difference (Curve IC50) [21]: 27 fold
